Measurements from paper PMC4164784, “4E-BPs require non-canonical 4E-binding motifs and a lateral surface of eIF4E to repress translation” (Nature Communications, 2014).
Substitutions are numbered along the chain they refer to.

B1: eIF4G peptide (residues 578–650) fused C-terminally to GB1 (domain or fragment, Drosophila melanogaster, UniProt O61380 578-650, looked up)
chain: PETTLNDKQDSTDLKVKVSAKISSIINYNEGQWSPNNPSGKKQYDREQLLQLREVKASRIQPEVKNVSILPQP
notes: eIF4G, Drosophila melanogaster, residues 578–650 (methods and legends); source: E. coli BL21 Star (DE3), purified (amylose, TEV cleavage, anion exchange, SEC); not shown: MBP, N-terminal, cleaved; GB1, C-terminal, kept
B2: Thor: Dm Thor full length (1–117), Q9XZ56, ortholog of 4E-BP1–3 (protein)
chain: MSASPTARQAITQALPMITRKVVISDPIQMPEVYSSTPGGTLYSTTPGGTKLIYERAFMKNLRGSPLSQTPPSNVPSCLLRGTPRTPFRKCVPVPTELIKQTKSLKIEDQEQFQLDL
modifications: left off: GFP, end not stated, kept
B3: CUP N-terminal fragment: CUP residues 1–402 (protein, UniProt Q9VMA3 1-402, looked up, fragment)
chain: MQMAEAEQENGAGALKIATNAGATDRPAHQQLPLPVEDQQDEVLTPAEKGKFEYPPPPPPPTPVQAPLATKATALNASQEHDDDEANSEKWEDPCAPPPPPPLPTSAFLATGLGYLKLPAFKLKDALEKAITKLEANKRTLKASPESSRSIKNKNVVALEMLPRRSNPETIGDGSMLASTSTAVMLQTKKPAVIVEMERRCKIINLLAKQNQILESISGEAIPMHGPSKHLHEDEGLTLQVLSARASTPYTQPSSMLSCTAVSCDLEHDSPRKQVASKEAVPEQQSSQVQQKRPPSTGIHKPGSLRAPKAVRPTTAPVVSSKPVKSYTRSRLMDIRNGMFNALMHRSKESFVMPRIATCDDIELEGRLRRMNIWRTSDGTRFRTRSTTANLNMNNNNNNECM
modifications: HA tag
B4: CUP C+NC peptide fused C-terminally to GB1 (domain or fragment, Drosophila melanogaster)
chain: STGIHKPGSLRAPKAVRPTTAPVVSSKPVKSYTRSRLMDIRNGMFNALMHRSKESFVMPRIATCDDIELEGRLRRMNIWRTSDGTRFRTRSTTANLNMNNNNNNECMPAFFKNKNKPNLISDESIIQSQP
notes: CUP, Drosophila melanogaster, canonical and non-canonical 4E-BMs; source: E. coli BL21 Star (DE3), purified (amylose, HRV3C cleavage, SEC); not shown: MBP, N-terminal, cleaved; GB1, C-terminal, kept

How the values were obtained:
[1] = molecular target: T1, eIF4E (residues 69–248) II-AA, purified (Drosophila melanogaster, UniProt P48598-2 69-248, Ile96 to Ala (II-AA) | Ile112 to Ala (II-AA)); assay: ITC; VP-ITC, 20 °C; eIF4E (69–248, WT or mutant, 1–20 μM) in the cell, tenfold concentrated GB1-stabilized peptides titrated in; 20 mM Na-phosphate pH 7.0, 150 mM NaCl; one-site binding model; conditions: both partners purified
T1 construct: eIF4E, Drosophila melanogaster, residues 69–248; also called eIF4E (II-AA); not shown: His6, N-terminal, cleaved
T1 sequence (looked up): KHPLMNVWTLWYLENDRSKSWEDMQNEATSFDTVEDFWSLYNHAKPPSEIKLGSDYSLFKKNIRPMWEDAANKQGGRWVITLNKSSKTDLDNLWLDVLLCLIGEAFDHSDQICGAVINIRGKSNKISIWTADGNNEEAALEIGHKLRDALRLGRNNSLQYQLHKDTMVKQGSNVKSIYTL

[2] = molecular target: T2, eIF4E (residues 69–248), purified (Drosophila melanogaster, UniProt P48598-2 69-248); assay: as above; conditions: both partners purified
T2 construct: eIF4E, Drosophila melanogaster, residues 69–248; the methods say the tag was cleaved with HRV3C; also called truncated eIF4E; eIF4E trunc; not shown: His6, N-terminal, cleaved
T2 sequence (looked up): T1 sequence (looked up) with A28I, A44I

[3] = molecular target: T3, SHN-eIF4E (full length, WT) (Drosophila melanogaster, UniProt P48598-2 1-248); assay: pull-down; 'kinetic assay': 1 μM purified SHN-eIF4E–GST-eIF4G complex prebound to Strep-Tactin beads, challenged with 5 μM (CUP, 4E-T) or 10 μM (Thor, eIF4G) competitor for the indicated times; 4 °C; conditions: both partners purified
T3 construct: eIF4E, Drosophila melanogaster; also called SHN-tagged eIF4E; SNH-tagged eIF4E; not shown: Strep-NusA-His (SHN), N-terminal, kept
T3 sequence (looked up): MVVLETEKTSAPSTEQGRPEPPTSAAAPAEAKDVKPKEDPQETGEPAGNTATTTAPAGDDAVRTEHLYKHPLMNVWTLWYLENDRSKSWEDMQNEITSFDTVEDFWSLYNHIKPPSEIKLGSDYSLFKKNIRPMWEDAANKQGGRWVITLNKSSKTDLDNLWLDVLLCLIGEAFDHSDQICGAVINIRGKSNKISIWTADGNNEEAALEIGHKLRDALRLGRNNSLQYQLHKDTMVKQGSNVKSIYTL

[4] = system: eIF4E II-AA (lateral surface mutant); assay: Coimmunoprecipitation with HA-eIF4E II-AA in S2 cells; type: cell-based, Drosophila melanogaster; conditions: HA-eIF4E II-AA vs WT, western blot
Method: (§1) The coimmunoprecipitations assays were performed as previously described. For the pull downs using m^7GTP beads, 25 μl of immobilized γ-aminophenyl-m^7GTP (C10-spacer—Jena Bioscience) beads was added to the cell lysates and the mixtures were rotated for 1 h at 4 °C. The beads were washed three times with NET buffer (50 mM Tris (pH 7.4), 150 mM NaCl, 1 mM EDTA and 0.1% Triton X-100). The bound proteins were eluted with 2 × SDS–polyacrylamide gel electrophoresis (SDS–PAGE) sample buffer and analyzed by western blotting (WB). All of the WB experiments were developed with the ECL western blotting detection system (GE Healthcare) as recommended by the manufacturer. The antibodies used in this study are listed in Supplementary Table 2.

[5] = system: firefly luciferase (F-Luc) reporter in S2 cells; assay: Translation repression assay, F-Luc reporter in S2 cells; type: cell-based, Drosophila melanogaster; conditions: coexpression (HA-CUP 1–402 0.05–0.2 μg, HA-Thor 0.1–0.5 μg plasmid; mutants at highest), 3 days, F-Luc activity normalized to mRNA, three independent experiments
Method: S2 cells were transfected in 6-well plates using Effectene transfection reagent (Qiagen) according to the manufacturers protocol. The transfection mixtures contained: 0.1 μg of F-Luc reporter plasmid (F-Luc-V5), 0.3 μg of control RNA reporter, and increasing amounts of plasmids expressing HA-CUP (fragment 1–402; 0.05–0.2 μg) and HA-Thor (full length, 0.1–0.5 μg). The plasmids expressing the corresponding mutants or the HA peptide control were transfected at the highest concentration. In all the experiments, the cells were collected three days after transfection. The F-Luc activity was measured using the Dual-Luciferase reporter assay system (Promega). The northern blotting was performed as previously described. The F-Luc mRNA levels were determined by northern blotting and were normalized to those of the control RNA. The normalized F-Luc mRNA levels were then used to normalize the F-Luc activity, to obtain translation efficiencies.

[6] = system: endogenous eIF4E and HA-tagged 4E-BPs in S2 cells; assay: Immunofluorescence localization in S2 cells; type: cell-based, Drosophila melanogaster
Method: S2 cells expressing HA-tagged versions of CUP, Thor and 4E-T or the indicated mutants were treated with Leptomycin B (100 nM; Sigma) or methanol as a control for 12 h. After the LMB treatment, the cells were allowed to adhere to poly-D-lysine–coated coverslips for 15 min and were fixed with 2% paraformaldehyde for 10 min. The cells were then permeabilized with 0.1% Triton X-100 in PBS (10 min) and stained with affinity-purified monoclonal anti-HA (Covance 1:1,000) and polyclonal anti-eIF4E (1:2,000) antibodies in PBS containing 1% BSA for 1 h. Alexa Fluor 594-labeled goat anti-rabbit and 488-labeled anti-mouse antibodies (Invitrogen) were used at dilutions of 1:1,000 and 1:2,000, respectively. The cells were mounted using Fluoromount-G (Southern Biotech). The images were acquired at room temperature using a confocal microscope (TCS SP2; Leica) that was fitted with a Plan-Apochromat × 100 NA 1.40 oil immersion objective and a series of three photomultipliers (Hamamatsu Photonics) controlled with the Leica confocal software (version 2.61). The images were prepared using Photoshop (Adobe). […]
Thor) independent experiments. […] Confocal fluorescent […]
micrographs of fixed S2 cells expressing HA-4E-T and GFP-Tral. The localization of HA-4E-T was determined by indirect immunofluorescence using an anti-HA antibody. The merged pictures show the HA signal in red and the GFP-Tral signal in green. Bar: 5 μm.

endogenous eIF4E = assay: Coimmunoprecipitation / m7GTP pull-down with endogenous eIF4E in S2 cell lysates; type: cell-based, Drosophila melanogaster; conditions: western blot
Method: as §1
Thor and 4E-T) or HA-eIF4G and endogenous eIF4E in S2 cell lysates. The proteins were immunoprecipitated using a polyclonal anti-eIF4E antibody (α-4E). The pre-immune (Pre-I) serum and an HA-tagged version of MBP served as negative controls. The inputs (1%) and immunoprecipitates (10%) were analyzed by western blotting using anti-HA and anti-eIF4E antibodies. (b,c) The interaction of HA-tagged full length 4E-BPs (CUP, Thor and 4E-T) and eIF4G with endogenous eIF4E was analyzed by coimmunoprecipitation using anti-HA antibodies (b) or by pull-down using m7GTP-Sepharose beads (c). HA-MBP served as a negative control. The inputs (10%) and immunoprecipitates (30%) were analyzed by western blotting using anti-HA and anti-eIF4E antibodies. (d) Western blot showing the interaction of HA-Thor (full-length either wild-type or mutants) with endogenous eIF4E in S2 cells. The proteins were immunoprecipitated using anti-HA antibodies and analyzed as described in (b,c). (e) Western blot showing the interaction of HA-4E-T (residues 1–511, wild-type or mutants) with endogenous eIF4E. The proteins were immunoprecipitated using anti-HA antibodies and analyzed as described in (b,c). The size markers (kDa) are shown to the right of each panel. Mutants are described in Supplementary Table 1.

[7] = system: eIF4E II-AA mutant (full length); assay: GST/MBP pull-down of full-length eIF4E II-AA mutant, coexpressed in E. coli; type: binding, Drosophila melanogaster; conditions: recombinant CUP (311–440), Thor (full length), 4E-T (1–58) or eIF4G (578–650), WT or mutant, SDS–PAGE
Method: For the pull-down assays shown in Fig. 3 and Supplementary Fig. 6a, the full-length His6- or SHN-tagged eIF4E (WT or II-AA mutant) was coexpressed with GST or MBP-tagged protein fragments, including CUP (residues 311–440), Thor (full length), 4E-T (residues 1–58) or eIF4G (residues 578–650) in E. coli BL21 (DE3) STAR cells in autoinducing medium[44] overnight at 20 °C. The cells were resuspended in lysis buffer (20 mM Tris–HCl (pH 7.5), 100 mM NaCl, 1 mM DTT) supplemented with EDTA-free protease inhibitor (Roche) and lysed by sonication. The cleared lysates were incubated for 1 h with 20 μl of Protino Glutathione Agarose 4B beads (Macherey-Nagel) or amylose resin (New England Biolabs). The beads were washed three times with lysis buffer, and the bound proteins were eluted with lysis buffer containing 25 mM L-glutathione or 25 mM maltose for 15 min. The proteins were analyzed by 10–15% SDS–PAGE followed by Coomassie blue staining.

| Molecule | Kd [1] | dH [1] | stoichiometry N [1] | Kd [2] | dH [2] | stoichiometry N [2] | time to 50% dissociation of prebound GST-eIF4G (fivefold molar excess of competitor) [3] | half-life of the eIF4E–eIF4G complexes (tenfold molar excess of competitor) [3] | time to 50% dissociation of prebound GST-eIF4G (tenfold molar excess of competitor) [3] | association with eIF4E II-AA (in words) [4] | repression of F-Luc reporter expression (in words) [5] | nuclear accumulation of endogenous eIF4E upon LMB (in words) ([6]; S2 cells expressing 4E-BP or mutant, LMB 100 nM, 12 h) | localization of endogenous eIF4E (in words) ([6]; S2 cells overexpressing 4E-BP or mutant, −LMB) | nuclear accumulation of 4E-BP upon LMB (in words) ([6]; S2 cells, LMB 100 nM, 12 h) | localization of the 4E-BP (in words) ([6]; S2 cells, steady-state, −LMB) | interaction with endogenous eIF4E (in words) (endogenous eIF4E) | binding to eIF4E II-AA mutant (in words) [7] |
| --- | --- | --- | --- | --- | --- | --- | --- | --- | --- | --- | --- | --- | --- | --- | --- | --- | --- |
| RYSKVDLLALRYEGKSRQRPQCSTRLELQTLGFWKI (domain or fragment) [4E-T C+NC peptide fused C-terminally to GB1] | 8.8 nM | -12.9 ± 0.3 kcal/mol | 1.03 ± 0.04 | 5.6 nM | -22.8 ± 3 kcal/mol | 0.95 ± 0.01 | 22 min | – | – | – | – | – | – | – | – | – | – |
| TKLIYERAFMKNLRGSPLSQTPPSNVPSCLLRGT (domain or fragment) [Thor C+NC peptide fused C-terminally to GB1] | 470 nM | -7.6 ± 0.3 kcal/mol | 0.97 ± 0.01 | 1.4 nM | -16.8 ± 1 kcal/mol | 0.95 ± 0.02 | – | 37 ± 9 min | – | – | – | – | – | – | – | – | – |
| B1 | 40 nM | -16.24 ± 0.04 kcal/mol | 1.03 ± 0.01 | 17 nM | -18.5 ± 2 kcal/mol | 0.99 ± 0.08 | – | – | 4 h | – | – | – | – | – | – | – | – |
| B2 | – | – | – | – | – | – | – | – | – | disrupted the association | inhibited the expression of the F-Luc reporter in a dose-dependent manner | endogenous eIF4E accumulated in the nucleus | evenly distributed in the cytoplasm | partial nuclear accumulation | distributed evenly throughout the cytoplasm | interacted with endogenous eIF4E | pulled down comparable amounts of WT and mutant eIF4E |
| B3 | – | – | – | – | – | – | – | – | – | – | inhibited the expression of the F-Luc reporter in a dose-dependent manner | – | – | – | – | – | – |
| B4 | 50 nM | -18.6 ± 0.7 kcal/mol | 0.98 ± 0.01 | 9.1 nM | -34.5 ± 0.35 kcal/mol | 1.05 ± 0.02 | 2.5 ± 0.5 min | – | – | – | – | – | – | – | – | – | – |
